The values that follow come from patent US20200150118A1.

The target of this test is T1, S100A9 (alarmin) in autologous bone marrow plasma of MDS patients (human) (UniProt P06702).
T1 sequence (looked up): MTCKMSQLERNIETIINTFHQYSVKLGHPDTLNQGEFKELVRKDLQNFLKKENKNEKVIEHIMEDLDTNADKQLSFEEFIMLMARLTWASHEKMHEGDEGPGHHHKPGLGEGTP
The test is described as follows: cell-based or functional assay.

“S100A9 high-affinity chimeric (CD33-IgG1) decoy receptor (from UniProt P20138 18-259) (Fc fusion)” had a reduction of the fraction of pyroptotic cells, CD33+ cells (MDS BM-MNC in autologous BM plasma, flow cytometry) of 68%; a reduction of the fraction of pyroptotic cells, CD71+ cells (MDS BM-MNC in autologous BM plasma, flow cytometry) of 64%; a reduction of the fraction of pyroptotic cells, progenitor cells (MDS BM-MNC in autologous BM plasma, flow cytometry) of 23%; a reduction of the fraction of pyroptotic cells, stem cells (MDS BM-MNC in autologous BM plasma, flow cytometry) of 44%.
